Measurements: patent US10280205B2, “Method for treating cancer with an activated T lymphocyte that selectively recognizes a cancer cell consisting of specific peptide” (immatics biotechnologies GmbH, priority 2015, dated 2019)

biological target: HLA-A*02:01 (Homo sapiens, UniProt P04439, D140Y/D185E/D98H/E176V/E277Q/G131W/G231S/I119V/I121R/I166T/I218V/L300P/L318F/N151K/N90K/P208A/P217A/Q86G/Q94H/R138H/R169H/T345S); assay: MHC binding assay: UV-ligand exchange with beta2m ELISA (exchange yield); conditions: binding to HLA-A*02:01, β2m ELISA
From the text: Candidate peptides for T cell based therapies according to the present invention were further tested for their MHC binding capacity (affinity). The individual peptide-MHC complexes were produced by UV-ligand exchange, where a UV-sensitive peptide is cleaved upon UV-irradiation, and exchanged with the peptide of interest as analyzed. Only peptide candidates that can effectively bind and stabilize the peptide-receptive MHC molecules prevent dissociation of the MHC complexes. To determine the yield of the exchange reaction, an ELISA was performed based on the detection of the light chain (β2m) of stabilized MHC complexes. The assay was performed as generally described in Rodenko et al. (Rodenko et al., 2006).
96 well MAXISorp plates (NUNC) were coated over night with 2 ug/ml streptavidin in PBS at room temperature, washed 4× and blocked for 1 h at 37° C. in 2% BSA containing blocking buffer. […] Peptide-MHC monomers of the UV-exchange reaction were diluted 100 fold in blocking buffer. Samples were incubated for 1h at 37° C., washed four times, incubated with 2 ug/ml HRP conjugated anti-β2m for 1h at 37° C., washed again and detected with TMB solution that is stopped with […]. Absorption was measured at 450 nm. Candidate peptides that show a high exchange yield (preferably higher than 50%, most preferred higher than 75%) are generally preferred for a generation and production of antibodies or fragments thereof, and/or T cell receptors or fragments thereof, as they show sufficient avidity to the MHC molecules and prevent dissociation of the MHC complexes.

Substance | Peptide exchange (MHC class I binding score, peptide exchange yield)
1 (SLMEPPAVLLL; listed as Homo sapiens) [compound 1] | “+++” (≥50 = +++)
4 (GIMEHITKI; listed as Homo sapiens) [compound 4] | “++++” (≥75% = ++++)
5 (HLTEVYPEL; listed as Homo sapiens) [compound 5] | “+++” (≥50 = +++)
6 (VLVSDGVHSV; listed as Homo sapiens) [compound 6] | “+++” (≥50 = +++)
7 (SLVGLLLYL; listed as Homo sapiens) [compound 7] | “++++” (≥75% = ++++)
9 (GAAKDLPGV; listed as Homo sapiens) [compound 9] | “++” (≥20% = ++)
10 (FLATFPLAAV; listed as Homo sapiens) [compound 10] | “++++” (≥75% = ++++)
12 (SLWPDPMEV; listed as Homo sapiens) [compound 12] | “+++” (≥50 = +++)
13 (YLMDESLNL; listed as Homo sapiens) [compound 13] | “+++” (≥50 = +++)
14 (AAYGGLNEKSFV; listed as Homo sapiens) [compound 14] | “+++” (≥50 = +++)
15 (VLLTFKIFL; listed as Homo sapiens) [compound 15] | “++” (≥20% = ++)
16 (VLFQGQASL; listed as Homo sapiens) [compound 16] | “+++” (≥50 = +++)
17 (GLLPGDRLVSV; listed as Homo sapiens) [compound 17] | “+++” (≥50 = +++)
18 (YLVAKLVEV; listed as Homo sapiens) [compound 18] | “++” (≥20% = ++)
19 (FMVDNEAIYDI; listed as Homo sapiens) [compound 19] | “++++” (≥75% = ++++)
20 (RMIEYFIDV; listed as Homo sapiens) [compound 20] | “+++” (≥50 = +++)
21 (VLDELDMEL; listed as Homo sapiens) [compound 21] | “++” (≥20% = ++)
22 (IMEENPGIFAV; listed as Homo sapiens) [compound 22] | “+++” (≥50 = +++)
23 (VLLDDIFAQL; listed as Homo sapiens) [compound 23] | “+++” (≥50 = +++)
24 (SLSDGLEEV; listed as Homo sapiens) [compound 24] | “++” (≥20% = ++)
25 (FLPDEPYIKV; listed as Homo sapiens) [compound 25] | “+++” (≥50 = +++)
26 (ALLELAEEL; listed as Homo sapiens) [compound 26] | “+++” (≥50 = +++)
27 (ILADIVISA; listed as Homo sapiens) [compound 27] | “+++” (≥50 = +++)
28 (QLLDETSAITL; listed as Homo sapiens) [compound 28] | “+++” (≥50 = +++)

Substance | Peptide exchange (MHC class I binding score, peptide exchange yield)
29 (KMLGIPISNILMV; listed as Homo sapiens) [compound 29] | “+++” (≥50 = +++)
30 (LILDWVPYI; listed as Homo sapiens) [compound 30] | “+++” (≥50 = +++)
31 (YLAPELFVNV; listed as Homo sapiens) [compound 31] | “++” (≥20% = ++)
32 (KLDDLTQDLTV; listed as Homo sapiens) [compound 32] | “++” (≥20% = ++)
33 (VLLSLLEKV; listed as Homo sapiens) [compound 33] | “++” (≥20% = ++)
34 (ILVEADSLWVV; listed as Homo sapiens) [compound 34] | “+++” (≥50 = +++)
35 (KINDTIYEV; listed as Homo sapiens) [compound 35] | “+++” (≥50 = +++)
39 (SVAPNLPAV; listed as Homo sapiens) [compound 39] | “+++” (≥50 = +++)
40 (TLLVKVFSV; listed as Homo sapiens) [compound 40] | “+++” (≥50 = +++)
41 (SLMPHIPGL; listed as Homo sapiens) [compound 41] | “+++” (≥50 = +++)
42 (VLLQKIVSA; listed as Homo sapiens) [compound 42] | “+++” (≥50 = +++)
43 (VLSSLEINI; listed as Homo sapiens) [compound 43] | “++” (≥20% = ++)
44 (ILDPISSGFLL; listed as Homo sapiens) [compound 44] | “++” (≥20% = ++)
45 (SLWQDIPDV; listed as Homo sapiens) [compound 45] | “+++” (≥50 = +++)
46 (ILTEENIHL; listed as Homo sapiens) [compound 46] | “+++” (≥50 = +++)
47 (ILLSVPLLVV; listed as Homo sapiens) [compound 47] | “++” (≥20% = ++)
49 (YLPAVFEEV; listed as Homo sapiens) [compound 49] | “+++” (≥50 = +++)
50 (SLSELEALM; listed as Homo sapiens) [compound 50] | “+++” (≥50 = +++)
51 (LLPDLEFYV; listed as Homo sapiens) [compound 51] | “++++” (≥75% = ++++)
52 (FLLAHGLGFLL; listed as Homo sapiens) [compound 52] | “++++” (≥75% = ++++)
53 (KMIETDILQKV; listed as Homo sapiens) [compound 53] | “++++” (≥75% = ++++)
54 (SLLEQGKEPWMV; listed as Homo sapiens) [compound 54] | “+++” (≥50 = +++)
55 (SLLDLETLSL; listed as Homo sapiens) [compound 55] | “++++” (≥75% = ++++)
